In US20230406885A1, “CYCLIC PEPTIDES FOR TRAPPING INTERLEUKIN-1 BETA” (MERCK SHARP & DOHME LLC, priority 2022, published 2023):
*1 amine or outer side, *2 acyl side, *3 side chain or, on linkers, in order; H or OH if unused. [ ]: non-standard residue; d: D form. TyrEtNAc = L-tyrosine O-ethyl acetamide, (S)-3-(4-(2-acetamidoethoxy)phenyl)-2-aminopropanoic acid, CC(=O)NCCOc1ccc(C[C@H](N[*:1])C(=O)[*:2])cc1; hF3CF3 = (S)-2-amino-4-(3-(trifluoromethyl)phenyl)butanoic acid, O=C([C@H](CCc1cccc(C(F)(F)F)c1)N[*:1])[*:2]; Cha44F2 = (S)-2-amino-3-(4,4-difluorocyclohexyl)propanoic acid, O=C([C@H](CC1CCC(F)(F)CC1)N[*:1])[*:2]; AbuMph = (S)-2-amino-4-morpholinobutanoic acid, O=C([C@H](CCN1CCOCC1)N[*:1])[*:2]; Trp(4-Cl)(βS-Me) = C[C@@H](c1c[nH]c2cccc(Cl)c12)[C@H](N)C(=O)O; Pro(trans-4-NH2) = O=C([C@@H]1C[C@@H](N[*:3])CN1[*:1])[*:2]; Bip(4'-COOH) = N[C@@H](Cc1ccc(-c2ccc(C(=O)O)cc2)cc1)C(=O)O; 1Nal(3S-Me) = C[C@@H](c1cccc2ccccc12)[C@H](N)C(=O)O; Phe(4-COOH) = N[C@@H](Cc1ccc(C(=O)O)cc1)C(=O)O; h3Pal(5-CN) = N#Cc1cncc(CC[C@H](N)C(=O)O)c1; Phe(4-NH2) = Nc1ccc(C[C@H](N)C(=O)O)cc1; 1Nal = N[C@@H](Cc1cccc2ccccc12)C(=O)O; hTyr = N[C@@H](CCc1ccc(O)cc1)C(=O)O; 4Pal = N[C@@H](Cc1ccncc1)C(=O)O; dDab = NCC[C@@H](N)C(=O)O; Orn = NCCC[C@H](N)C(=O)O; dNMeA = CN[C@H](C)C(=O)O; Dab = NCC[C@H](N)C(=O)O; Nva = CCC[C@H](N)C(=O)O; Dap = NC[C@H](N)C(=O)O; Aib = CC(C)(N)C(=O)O

molecular target: Recombinant human IL-1β (BioLegend 579404) (human, UniProt P01584 117-269); assay: cell-based or functional assay

MRC5 IC50	Binder
0.0939 nM	cyclo([TyrEtNAc]W[Phe(4-COOH)]G[Pro(trans-4-NH2)][Trp(4-Cl)(βS-Me)]D[dNMeA]G[Bip(4'-COOH)]KL[dA][hF3CF3]) (SMILES CC(=O)NCCOc1ccc(C[C@@H]2NC(=O)[C@H](CCc3cccc(C(F)(F)F)c3)NC(=O)[C@@H](C)NC(=O)[C@H](CC(C)C)NC(=O)[C@H](CCCCN)NC(=O)[C@H](Cc3ccc(-c4ccc(C(=O)O)cc4)cc3)NC(=O)CNC(=O)[C@@H](C)N(C)C(=O)[C@H](CC(=O)O)NC(=O)[C@H]([C@@H](C)c3c[nH]c4cccc(Cl)c34)NC(=O)[C@@H]3C[C@@H](N)CN3C(=O)CNC(=O)[C@H](Cc3ccc(C(=O)O)cc3)NC(=O)[C@H](Cc3c[nH]c4ccccc34)NC2=O)cc1) [SEQ ID NO: 137 (Example No. 137)]
0.515 nM	cyclo([TyrEtNAc]W[Phe(4-COOH)]G[Pro(trans-4-NH2)][Trp(4-Cl)(βS-Me)]D[dNMeA]G[Bip(4'-COOH)]W[AbuMph][dA]G) (SMILES CC(=O)NCCOc1ccc(C[C@@H]2NC(=O)CNC(=O)[C@@H](C)NC(=O)[C@H](CCN3CCOCC3)NC(=O)[C@H](Cc3c[nH]c4ccccc34)NC(=O)[C@H](Cc3ccc(-c4ccc(C(=O)O)cc4)cc3)NC(=O)CNC(=O)[C@@H](C)N(C)C(=O)[C@H](CC(=O)O)NC(=O)[C@H]([C@@H](C)c3c[nH]c4cccc(Cl)c34)NC(=O)[C@@H]3C[C@@H](N)CN3C(=O)CNC(=O)[C@H](Cc3ccc(C(=O)O)cc3)NC(=O)[C@H](Cc3c[nH]c4ccccc34)NC2=O)cc1) [SEQ ID NO: 140 (Example No. 140)]
0.0498 nM	cyclo([TyrEtNAc]W[Phe(4-COOH)]G[Pro(trans-4-NH2)][Trp(4-Cl)(βS-Me)]D[dNMeA]G[Bip(4'-COOH)][1Nal]L[dA][hTyr]) (SMILES CC(=O)NCCOc1ccc(C[C@@H]2NC(=O)[C@H](CCc3ccc(O)cc3)NC(=O)[C@@H](C)NC(=O)[C@H](CC(C)C)NC(=O)[C@H](Cc3cccc4ccccc34)NC(=O)[C@H](Cc3ccc(-c4ccc(C(=O)O)cc4)cc3)NC(=O)CNC(=O)[C@@H](C)N(C)C(=O)[C@H](CC(=O)O)NC(=O)[C@H]([C@@H](C)c3c[nH]c4cccc(Cl)c34)NC(=O)[C@@H]3C[C@@H](N)CN3C(=O)CNC(=O)[C@H](Cc3ccc(C(=O)O)cc3)NC(=O)[C@H](Cc3c[nH]c4ccccc34)NC2=O)cc1) [SEQ ID NO: 131 (Example No. 131)]
0.31 nM	cyclo([TyrEtNAc]W[Phe(4-COOH)]G[Pro(trans-4-NH2)][Trp(4-Cl)(βS-Me)]D[dNMeA]G[Bip(4'-COOH)][4Pal]L[dA][hTyr]) (SMILES CC(=O)NCCOc1ccc(C[C@@H]2NC(=O)[C@H](CCc3ccc(O)cc3)NC(=O)[C@@H](C)NC(=O)[C@H](CC(C)C)NC(=O)[C@H](Cc3ccncc3)NC(=O)[C@H](Cc3ccc(-c4ccc(C(=O)O)cc4)cc3)NC(=O)CNC(=O)[C@@H](C)N(C)C(=O)[C@H](CC(=O)O)NC(=O)[C@H]([C@@H](C)c3c[nH]c4cccc(Cl)c34)NC(=O)[C@@H]3C[C@@H](N)CN3C(=O)CNC(=O)[C@H](Cc3ccc(C(=O)O)cc3)NC(=O)[C@H](Cc3c[nH]c4ccccc34)NC2=O)cc1) [SEQ ID NO: 135 (Example No. 135)]
0.114 nM	cyclo([TyrEtNAc]W[Phe(4-COOH)]G[Pro(trans-4-NH2)][Trp(4-Cl)(βS-Me)]D[dNMeA]G[Bip(4'-COOH)][1Nal][Dap][Aib][h3Pal(5-CN)]) (SMILES CC(=O)NCCOc1ccc(C[C@@H]2NC(=O)[C@H](CCc3cncc(C#N)c3)NC(=O)C(C)(C)NC(=O)[C@H](CN)NC(=O)[C@H](Cc3cccc4ccccc34)NC(=O)[C@H](Cc3ccc(-c4ccc(C(=O)O)cc4)cc3)NC(=O)CNC(=O)[C@@H](C)N(C)C(=O)[C@H](CC(=O)O)NC(=O)[C@H]([C@@H](C)c3c[nH]c4cccc(Cl)c34)NC(=O)[C@@H]3C[C@@H](N)CN3C(=O)CNC(=O)[C@H](Cc3ccc(C(=O)O)cc3)NC(=O)[C@H](Cc3c[nH]c4ccccc34)NC2=O)cc1) [SEQ ID NO: 130 (Example No. 130)]
0.379 nM	cyclo([TyrEtNAc]W[Phe(4-COOH)]G[Pro(trans-4-NH2)][Trp(4-Cl)(βS-Me)]D[dNMeA]G[Bip(4'-COOH)][4Pal][Dab][dA][hTyr]) (SMILES CC(=O)NCCOc1ccc(C[C@@H]2NC(=O)[C@H](CCc3ccc(O)cc3)NC(=O)[C@@H](C)NC(=O)[C@H](CCN)NC(=O)[C@H](Cc3ccncc3)NC(=O)[C@H](Cc3ccc(-c4ccc(C(=O)O)cc4)cc3)NC(=O)CNC(=O)[C@@H](C)N(C)C(=O)[C@H](CC(=O)O)NC(=O)[C@H]([C@@H](C)c3c[nH]c4cccc(Cl)c34)NC(=O)[C@@H]3C[C@@H](N)CN3C(=O)CNC(=O)[C@H](Cc3ccc(C(=O)O)cc3)NC(=O)[C@H](Cc3c[nH]c4ccccc34)NC2=O)cc1) [SEQ ID NO: 134 (Example No. 134)]
0.766 nM	cyclo([TyrEtNAc]W[Phe(4-COOH)]G[Pro(trans-4-NH2)][Trp(4-Cl)(βS-Me)]D[dNMeA]G[Bip(4'-COOH)][1Nal]S[dA][Phe(4-NH2)]) (SMILES CC(=O)NCCOc1ccc(C[C@@H]2NC(=O)[C@H](Cc3ccc(N)cc3)NC(=O)[C@@H](C)NC(=O)[C@H](CO)NC(=O)[C@H](Cc3cccc4ccccc34)NC(=O)[C@H](Cc3ccc(-c4ccc(C(=O)O)cc4)cc3)NC(=O)CNC(=O)[C@@H](C)N(C)C(=O)[C@H](CC(=O)O)NC(=O)[C@H]([C@@H](C)c3c[nH]c4cccc(Cl)c34)NC(=O)[C@@H]3C[C@@H](N)CN3C(=O)CNC(=O)[C@H](Cc3ccc(C(=O)O)cc3)NC(=O)[C@H](Cc3c[nH]c4ccccc34)NC2=O)cc1) [SEQ ID NO: 133 (Example No. 133)]
0.37 nM	cyclo([TyrEtNAc]W[Phe(4-COOH)]G[Pro(trans-4-NH2)][Trp(4-Cl)(βS-Me)]D[dNMeA]G[Bip(4'-COOH)][1Nal][Orn][Aib]G) (SMILES CC(=O)NCCOc1ccc(C[C@@H]2NC(=O)CNC(=O)C(C)(C)NC(=O)[C@H](CCCN)NC(=O)[C@H](Cc3cccc4ccccc34)NC(=O)[C@H](Cc3ccc(-c4ccc(C(=O)O)cc4)cc3)NC(=O)CNC(=O)[C@@H](C)N(C)C(=O)[C@H](CC(=O)O)NC(=O)[C@H]([C@@H](C)c3c[nH]c4cccc(Cl)c34)NC(=O)[C@@H]3C[C@@H](N)CN3C(=O)CNC(=O)[C@H](Cc3ccc(C(=O)O)cc3)NC(=O)[C@H](Cc3c[nH]c4ccccc34)NC2=O)cc1) [SEQ ID NO: 132 (Example No. 132)]
0.133 nM	cyclo([TyrEtNAc]W[Phe(4-COOH)]G[Pro(trans-4-NH2)][Trp(4-Cl)(βS-Me)]D[dNMeA]G[Bip(4'-COOH)]KS[dDab][hTyr]) (SMILES CC(=O)NCCOc1ccc(C[C@@H]2NC(=O)[C@H](CCc3ccc(O)cc3)NC(=O)[C@@H](CCN)NC(=O)[C@H](CO)NC(=O)[C@H](CCCCN)NC(=O)[C@H](Cc3ccc(-c4ccc(C(=O)O)cc4)cc3)NC(=O)CNC(=O)[C@@H](C)N(C)C(=O)[C@H](CC(=O)O)NC(=O)[C@H]([C@@H](C)c3c[nH]c4cccc(Cl)c34)NC(=O)[C@@H]3C[C@@H](N)CN3C(=O)CNC(=O)[C@H](Cc3ccc(C(=O)O)cc3)NC(=O)[C@H](Cc3c[nH]c4ccccc34)NC2=O)cc1) [SEQ ID NO: 139 (Example No. 139)]
0.214 nM	cyclo([TyrEtNAc]W[Phe(4-COOH)]G[Pro(trans-4-NH2)][Trp(4-Cl)(βS-Me)]D[dNMeA]G[Bip(4'-COOH)]KS[dA][hTyr]) (SMILES CC(=O)NCCOc1ccc(C[C@@H]2NC(=O)[C@H](CCc3ccc(O)cc3)NC(=O)[C@@H](C)NC(=O)[C@H](CO)NC(=O)[C@H](CCCCN)NC(=O)[C@H](Cc3ccc(-c4ccc(C(=O)O)cc4)cc3)NC(=O)CNC(=O)[C@@H](C)N(C)C(=O)[C@H](CC(=O)O)NC(=O)[C@H]([C@@H](C)c3c[nH]c4cccc(Cl)c34)NC(=O)[C@@H]3C[C@@H](N)CN3C(=O)CNC(=O)[C@H](Cc3ccc(C(=O)O)cc3)NC(=O)[C@H](Cc3c[nH]c4ccccc34)NC2=O)cc1) [SEQ ID NO: 138 (Example No. 138)]
0.0828 nM	cyclo([TyrEtNAc]W[Phe(4-COOH)]G[Pro(trans-4-NH2)][1Nal(3S-Me)]N[dNMeA]G[Bip(4'-COOH)]W[Dap][dA][hTyr]) (SMILES CC(=O)NCCOc1ccc(C[C@@H]2NC(=O)[C@H](CCc3ccc(O)cc3)NC(=O)[C@@H](C)NC(=O)[C@H](CN)NC(=O)[C@H](Cc3c[nH]c4ccccc34)NC(=O)[C@H](Cc3ccc(-c4ccc(C(=O)O)cc4)cc3)NC(=O)CNC(=O)[C@@H](C)N(C)C(=O)[C@H](CC(N)=O)NC(=O)[C@H]([C@@H](C)c3cccc4ccccc34)NC(=O)[C@@H]3C[C@@H](N)CN3C(=O)CNC(=O)[C@H](Cc3ccc(C(=O)O)cc3)NC(=O)[C@H](Cc3c[nH]c4ccccc34)NC2=O)cc1) [SEQ ID NO: 129 (Example No. 129)]
0.396 nM	cyclo([TyrEtNAc]W[Phe(4-COOH)]G[Pro(trans-4-NH2)][Trp(4-Cl)(βS-Me)]D[dNMeA]G[Bip(4'-COOH)][4Pal][Nva][dA][Cha44F2]) (SMILES CCC[C@@H]1NC(=O)[C@H](Cc2ccncc2)NC(=O)[C@H](Cc2ccc(-c3ccc(C(=O)O)cc3)cc2)NC(=O)CNC(=O)[C@@H](C)N(C)C(=O)[C@H](CC(=O)O)NC(=O)[C@H]([C@@H](C)c2c[nH]c3cccc(Cl)c23)NC(=O)[C@@H]2C[C@@H](N)CN2C(=O)CNC(=O)[C@H](Cc2ccc(C(=O)O)cc2)NC(=O)[C@H](Cc2c[nH]c3ccccc23)NC(=O)[C@H](Cc2ccc(OCCNC(C)=O)cc2)NC(=O)[C@H](CC2CCC(F)(F)CC2)NC(=O)[C@@H](C)NC1=O) [SEQ ID NO: 136 (Example No. 136)]
